Laboratory results as given in the supplement of paper PMC10567573.

B1: CDC14A (parent)
chain: GPHPKSKIENGYPLHAPEAYFPYF

Variants of: B1
Assay: protein stability index of a GFP-peptide fusion (GPS, HEK-293T) (PSI 1-6); higher = more stable
Settings: c terminus: a fixed tail appended
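Further: lentivirally expressed fusions sorted by FACS into six bins by GFP to DsRed ratio, PSI derived from sequencing read proportions per bin multiplied by bin number.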

Row | Variant | protein stability index
1 | GPHPKSKIEFGYPLHAPEAYFPYF | 2.51
2 | GPHPKSKIEAGYPLHAPEAYFPYF | 2.51
3 | GPHPKSKIELGYPLHAPEAYFPYF | 2.19
4 | GPHPKSKIEPGYPLHAPEAYFPYF | 2.52
5 | GPHPKSKIEVGYPLHAPEAYFPYF | 2.06
6 | GPHPKSKIEEGYPLHAPEAYFPYF | 2.29
7 | GPHPKSKIEGGYPLHAPEAYFPYF | 2.18
8 | GPHPKSKIEYGYPLHAPEAYFPYF | 1.79
9 | GPHPKSKIERGYPLHAPEAYFPYF | 1.55
10 | GPHPKSKIEDGYPLHAPEAYFPYF | 1.96
11 | GPHPKSKIEWGYPLHAPEAYFPYF | 1.89
12 | GPHPYSKIENGYPLHAPEAYFPYF | 1.66
13 | GPHPRSKIENGYPLHAPEAYFPYF | 2.38
14 | GPHPSSKIENGYPLHAPEAYFPYF | 2.56
15 | GPHPKSKIENGYPLHMPEAYFPYF | 2.01
16 | GPHPKSKIENGYPLHFPEAYFPYF | 1.82
17 | GPHPKSKIENGYPLHWPEAYFPYF | 1.99
18 | GPHPKSKIENGYPLHQPEAYFPYF | 2.49
19 | GPHPKSKIENGYPLHHPEAYFPYF | 2.32
20 | GPHPKSKIENGYPLHDPEAYFPYF | 2.45
21 | GPHPKSKIENGYPLHVPEAYFPYF | 2.21
22 | GPHPKSKIENLYPLHAPEAYFPYF | 2.56
23 | GPHPKSKIENRYPLHAPEAYFPYF | 2.5
24 | GPHPKSKIENFYPLHAPEAYFPYF | 1.72

Row | Variant | protein stability index
25 | GPHPKSKIENYYPLHAPEAYFPYF | 2.12
26 | GPHPKSKIENHYPLHAPEAYFPYF | 2.17
27 | GPHPKSKIENKYPLHAPEAYFPYF | 2.44
28 | GPHPKSKIENSYPLHAPEAYFPYF | 2.09
29 | GPHPKSKIENGYPLHAPEAYFPSF | 3.11
30 | GPHPKSKIENGYPLHAPEAYFPAF | 2.93
31 | GPHPKSKIENGYPLHAPEAYFPWF | 1.91
32 | GPHPKSKIENGYPLHAPEAYFPMF | 2.32
33 | GPHPKSKIENGYPLHAPEAYFPVF | 2.07
34 | GPHPKSKIENGYPLHAPEAYFPNF | 3.28
35 | GPHPKSKIENGYPKHAPEAYFPYF | 2.4
36 | GPHPKSKIENGYPSHAPEAYFPYF | 2.79
37 | GPHPKSKIENGYPEHAPEAYFPYF | 3.65
38 | GPHPKSKIENGYPVHAPEAYFPYF | 2.11
39 | GPHPKSKIENGYPYHAPEAYFPYF | 1.89
40 | GPHPKSKIENGYPWHAPEAYFPYF | 2.46
41 | GPHPKSKIENGYPQHAPEAYFPYF | 3.06
42 | GPHPKSKIENGYPNHAPEAYFPYF | 2.81
43 | GPHPKSKIENGYPLHAPEAYMPYF | 2.69
44 | GPHPKSKIENGYPLHAPEAYCPYF | 2.92
45 | GPHPKSKIENGYPLHAPNAYFPYF | 2.01
46 | GPHPKSKIENGYPLHAPSAYFPYF | 2.28
47 | GPHPKSKIENGYPLHAPFAYFPYF | 1.92
48 | GPHPKSKIENGYPLHAPTAYFPYF | 2.01

Row | Variant | protein stability index
49 | GPHPKSKIENGYPLHAPCAYFPYF | 1.65
50 | GPHPKSKIENGYPLHAPQAYFPYF | 2.31
51 | GPHPKSKIENGYPLHAPHAYFPYF | 2.24
52 | GPHPKSKIENGYPLHAPVAYFPYF | 1.57
53 | GPHPKSKIENGYPLHAPRAYFPYF | 2.69
54 | GPHPKSKIENGYPLHAPEACFPYF | 2.19
55 | GPHPKSKIENGYPLHAPEADFPYF | 3.29
56 | GPHPKSKIENGYPLHAPEAEFPYF | 2.76
57 | GPHPKSKIENGYPLHAPEARFPYF | 2.44
58 | GPHPKSKIENGYPLHAPEASFPYF | 2.55
59 | GPHPKSKIENGYPLHAPEAAFPYF | 2.76
60 | GPHPKSKIENGYPLHAPEATFPYF | 2.84
61 | GPHPKSKIENGYPLHAPEANFPYF | 2.63
62 | GPHWKSKIENGYPLHAPEAYFPYF | 2.08
63 | GPHRKSKIENGYPLHAPEAYFPYF | 2.8
64 | GPHFKSKIENGYPLHAPEAYFPYF | 2.24
65 | GPHSKSKIENGYPLHAPEAYFPYF | 1.86
66 | GPHHKSKIENGYPLHAPEAYFPYF | 2.24
67 | GPMPKSKIENGYPLHAPEAYFPYF | 2.19
68 | GPDPKSKIENGYPLHAPEAYFPYF | 2.01
69 | GPEPKSKIENGYPLHAPEAYFPYF | 2.46
70 | GPYPKSKIENGYPLHAPEAYFPYF | 1.9
71 | GPAPKSKIENGYPLHAPEAYFPYF | 2.4
72 | GPIPKSKIENGYPLHAPEAYFPYF | 2.48

Row | Variant | protein stability index
73 | GPWPKSKIENGYPLHAPEAYFPYF | 1.66
74 | GPNPKSKIENGYPLHAPEAYFPYF | 2.54
75 | GPGPKSKIENGYPLHAPEAYFPYF | 2.54
76 | CPHPKSKIENGYPLHAPEAYFPYF | 2.1
77 | LPHPKSKIENGYPLHAPEAYFPYF | 2.05
78 | APHPKSKIENGYPLHAPEAYFPYF | 1.82
79 | QPHPKSKIENGYPLHAPEAYFPYF | 2.03
80 | RPHPKSKIENGYPLHAPEAYFPYF | 1.88
81 | NPHPKSKIENGYPLHAPEAYFPYF | 2.56
82 | GPHPKSKYENGYPLHAPEAYFPYF | 1.88
83 | GPHPKSKQENGYPLHAPEAYFPYF | 2.7
84 | GPHPKSKMENGYPLHAPEAYFPYF | 2.09
85 | GPHPKSKLENGYPLHAPEAYFPYF | 2.03
86 | GPHPKSKPENGYPLHAPEAYFPYF | 2.56
87 | GPHPKSKDENGYPLHAPEAYFPYF | 3.34
88 | GPHPKSKCENGYPLHAPEAYFPYF | 2.45
89 | GPHPKSKKENGYPLHAPEAYFPYF | 2.53
90 | GPHPKSKNENGYPLHAPEAYFPYF | 2.98
91 | GPHPKSKIENGYALHAPEAYFPYF | 2.57
92 | GPHPKSKIENGYSLHAPEAYFPYF | 2.22
93 | GPHPKSKIENGYHLHAPEAYFPYF | 1.92
94 | GPHPKSKIENGYDLHAPEAYFPYF | 2.81
95 | GPHPKSKIENGYNLHAPEAYFPYF | 2.68
96 | GPHPKSKIENGYVLHAPEAYFPYF | 2.05

Row | Variant | protein stability index
97 | GPHPKSKIENGYCLHAPEAYFPYF | 1.97
98 | GPHPKSKIENGYRLHAPEAYFPYF | 2.06
99 | GPHPKSKIENGYPLCAPEAYFPYF | 2.23
100 | GPHPKSKIENGYPLVAPEAYFPYF | 2.53
101 | GPHPKSKIENGYPLEAPEAYFPYF | 2.79
102 | GPHPKSKIENGYPLMAPEAYFPYF | 1.96
103 | GPHPKSKIENGYPLWAPEAYFPYF | 1.2
104 | GPHPKSKIENGYPLSAPEAYFPYF | 2.83
105 | GPHPKSKIENGYPLYAPEAYFPYF | 1.68
106 | GPHPKSKIENGYPLQAPEAYFPYF | 1.93
107 | GPHPKSKIENGYPLLAPEAYFPYF | 1.76
108 | GPHPKSKIENGYPLHAPEVYFPYF | 1.89
109 | GPHPKSKIENGYPLHAPEEYFPYF | 2.36
110 | GPHPKSKIENGYPLHAPEIYFPYF | 2.38
111 | GPHPKSKIENGYPLHAPEDYFPYF | 2.2
112 | GPHPKSKIENGYPLHAPECYFPYF | 1.8
113 | GPHPKSKIENGYPLHAPEHYFPYF | 2.22
114 | GPHPKSKIENGYPLHAPEPYFPYF | 2.41
115 | GPHPKSKIENGYPLHAPEYYFPYF | 2.35
116 | GPHPKSKIENGYPLHAPESYFPYF | 2.35
117 | GPHPKSKIENGYPLHAPEFYFPYF | 2.39
118 | GEHPKSKIENGYPLHAPEAYFPYF | 2.09
119 | GTHPKSKIENGYPLHAPEAYFPYF | 2.17
120 | GWHPKSKIENGYPLHAPEAYFPYF | 2.45

Row | Variant | protein stability index
121 | GVHPKSKIENGYPLHAPEAYFPYF | 2.41
122 | GHHPKSKIENGYPLHAPEAYFPYF | 2.46
123 | GRHPKSKIENGYPLHAPEAYFPYF | 2.34
124 | GLHPKSKIENGYPLHAPEAYFPYF | 2.29
125 | GMHPKSKIENGYPLHAPEAYFPYF | 2.13
126 | GCHPKSKIENGYPLHAPEAYFPYF | 1.67
127 | GPHPKSQIENGYPLHAPEAYFPYF | 1.96
128 | GPHPKSGIENGYPLHAPEAYFPYF | 2.84
129 | GPHPKSAIENGYPLHAPEAYFPYF | 2.33
130 | GPHPKSPIENGYPLHAPEAYFPYF | 2.72
131 | GPHPKSWIENGYPLHAPEAYFPYF | 1.57
132 | GPHPKSCIENGYPLHAPEAYFPYF | 2.23
133 | GPHPKSRIENGYPLHAPEAYFPYF | 2.43
134 | GPHPKSKIENGEPLHAPEAYFPYF | 3.56
135 | GPHPKSKIENGKPLHAPEAYFPYF | 2.69
136 | GPHPKSKIENGVPLHAPEAYFPYF | 2.19
137 | GPHPKSKIENGRPLHAPEAYFPYF | 2.58
138 | GPHPKSKIENGNPLHAPEAYFPYF | 3.03
139 | GPHPKSKIENGLPLHAPEAYFPYF | 2.46
140 | GPHPKSKIENGIPLHAPEAYFPYF | 2.82
141 | GPHPKSKITNGYPLHAPEAYFPYF | 2.22
142 | GPHPKSKIGNGYPLHAPEAYFPYF | 2.31
143 | GPHPKSKIQNGYPLHAPEAYFPYF | 2.02
144 | GPHPKSKIVNGYPLHAPEAYFPYF | 1.81

Row | Variant | protein stability index
145 | GPHPKSKISNGYPLHAPEAYFPYF | 2.21
146 | GPHPKSKIENGYPLHAPEAYFHYF | 1.6
147 | GPHPKSKIENGYPLHAPEAYFIYF | 3.32
148 | GPHPKSKIENGYPLHAPEAYFAYF | 1.61
149 | GPHPKSKIENGYPLHAPEAYFCYF | 2.9
150 | GPHPKSKIENGYPLHAPEAYFMYF | 2.76
151 | GPHPKSKIENGYPLHAPEAYFRYF | 2.5
152 | GPHPKSKIENGYPLHAPEAYFWYF | 2.54
153 | GPHPKSKIENGYPLHAPEAYFLYF | 2.38
154 | GPHPKSKIENGYPLHAPEAYFKYF | 2.67
155 | GPHPKSKIENGYPLHAPEAYFTYF | 1.64
156 | GPHPKSKIENGYPLHAPEAYFDYF | 2.73
157 | GPHPKSKIENGYPLHAPEAYFGYF | 1.8
158 | GPHPKKKIENGYPLHAPEAYFPYF | 2.58
159 | GPHPKQKIENGYPLHAPEAYFPYF | 2.22
160 | GPHPKDKIENGYPLHAPEAYFPYF | 2.59
161 | GPHPKLKIENGYPLHAPEAYFPYF | 2.22
162 | GPHPKHKIENGYPLHAPEAYFPYF | 2.63
163 | GPHPKMKIENGYPLHAPEAYFPYF | 1.6
164 | GPHPKCKIENGYPLHAPEAYFPYF | 1.87
165 | GPHPKSKIENGYPLHACEAYFPYF | 2
166 | GPHPKSKIENGYPLHAVEAYFPYF | 1.92
167 | GPHPKSKIENGYPLHAMEAYFPYF | 2.07
168 | GPHPKSKIENGYPLHANEAYFPYF | 2.16

Row | Variant | protein stability index
169 | GPHPKSKIENGYPLHATEAYFPYF | 3.15
170 | GPHPKSKIENGYPLHAAEAYFPYF | 2.21
171 | GPHPKSKIENGYPLHASEAYFPYF | 1.87
172 | GPHPKSKIENGYPLHADEAYFPYF | 2.71
173 | GPHPKSKIENGYPLHAWEAYFPYF | 2.04
174 | GPHPKSKIENGYPLHALEAYFPYF | 1.97
175 | GPHPKSKIENGYPLHAYEAYFPYF | 1.79
176 | GPHPKSKIENGYPLHAEEAYFPYF | 2.11
177 | GPHPKSKIENGYPLHAKEAYFPYF | 3.2
178 | GPHPKSKIENGYPLHAREAYFPYF | 1.8
179 | GPHPKSKIENGYPLHAPEAYFPYY | 2.6
180 | GPHPKSKIENGYPLHAPEAYFPYH | 3.12
181 | GPHPKSKIENGYPLHAPEAYFPYR | 2.44
182 | GPHPKSKIENGYPLHAPEAYFPYL | 2.51
183 | GPHPKSKIENGYPLHAPEAYFPYS | 2.38
184 | GPHPKSKIENGYPLHAPEAYFPYP | 3.08
185 | GPHPKSKIENGYPLHAPEAYFPYN | 2.62
186 | GPHPKSKIENGYPLHAPEAYFPYQ | 2.6
187 | GPHPKSKIENGYPLHAPEAYFPYK | 3.4
188 | GPHPKSKIENGYPLHAPEAYFPYW | 1.89
